Experimental data as given in publication PMC5114784, “Identification and characterization of two new 5-keto-4-deoxy-D-Glucarate Dehydratases/Decarboxylases” (BMC Biotechnology, 2016).

B1: KdgDAb (Acinetobacter baylyi ADP1) (protein)
chain: MDALELKNIVSDGLLSFPVTDFDQNGDFNAASYAKRLEWLAPYGASALFAAGGTGEFFSLTGDEYSDVIKTAVDACKGSVPIIAGAGGPTRQAILQAQEAERLGAHGILLMPHYLTEASQEGLVEHVKQVCNAVNFGVIFYNRSVSKLNVDSLQQLVESCPNLIGFKDSSGQIDMMTEVVQTLGDRLSYLGGLPTAEIFAAPYKALGSPVYSSAVFNFIPKTAMEFYNALRNDDFATTQRLIRDFFLPLIKIRNRKSGYAVSMVKAGAKIVGHDAGPVRPPLSDLTPQDYEDLAALIATLGPQ
notes: full-length, N-terminal His-tag (NH), codon-optimized gene, E. coli BL21(DE3), IMAC purified
B2: KdgDPn (Polaromonas naphthalenivorans CJ2) (protein)
chain: MNPQDLKTIVSSGLLSFPVTDFDEQGDFRPKTYIERLEWLAPYGATALFAAGGTGEFFSLTGDEYPLIIKTAVNTCAGKVPIIAGVGGPTRFAIACAQEAERLGAHGILLLPHYLMEAGQEGLIAHVEAVCKSVKFGVIVYNRNVCKLTPESLAILADRCPNLIGFKDGVGNIETMSSIFMKMGDRFSYLGGLPTAEVYAAAYKALGTPVYSSAVFNFIPKTAMDFYHAVASDDLATQHRLLRDFFMPYLALRNKNPGYAVSIVKAGATIVGHDAGPVRPPLTDLKPAEMEELAVLIKSLGPQ
notes: full-length, C-terminal His-tag (CH), codon-optimized gene, E. coli ArcticExpress(DE3), IMAC purified

Tests used:
purified protein [1] = substrate: O=C(O)C(=O)C[C@H](O)[C@@H](O)C(=O)O; assay: purified protein; format: biochemical, Acinetobacter baylyi; settings: 2.5 mM KPi pH 7.0, 2 mM MgCl2, 25 μg/ml BTB, 37 °C
purified protein [2] = substrate: O=C(O)C(=O)C[C@H](O)[C@@H](O)C(=O)O; assay: purified protein; format: biochemical, Polaromonas naphthalenivorans; settings: 2.5 mM KPi pH 7.0, 2 mM MgCl2, 25 μg/ml BTB, 37 °C

| Protein | Km (purified protein [1]) [µM] | Vmax (purified protein [1]) [µmol/min/mg] | kcat (purified protein [1]) [s⁻¹] | kcat/Km (purified protein [1]) [M⁻¹ s⁻¹] | Km (purified protein [2]) [µM] | Vmax (purified protein [2]) [µmol/min/mg] | kcat (purified protein [2]) [s⁻¹] | kcat/Km (purified protein [2]) [M⁻¹ s⁻¹] |
| --- | --- | --- | --- | --- | --- | --- | --- | --- |
| B1 | 1000 ± 100 | 8 | 4.5 ± 0.02 | 4500 | – | – | – | – |
| B2 | – | – | – | – | 1100 ± 100 | 3 | 1.7 ± 0.01 | 1500 |
